Data from PMC3064786.

Target: HMGA1a-FLAG (UniProt P17096 1-107)
Assay: EMSA

Chain of HMGA1a-FLAG (P17096 whole entry): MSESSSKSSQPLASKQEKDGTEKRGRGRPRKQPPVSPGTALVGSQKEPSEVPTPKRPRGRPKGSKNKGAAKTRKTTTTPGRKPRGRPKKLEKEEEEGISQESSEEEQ

B1: IL2-Rα promoter fragment (-136 to -76) (dsDNA)
DNA 1: ACCGCAAACTATATTGTCATCAAAAAAAAAAAAAAAAAAACACTTCCTATATTTGAGATG
DNA 2: CATCTCAAATATAGGAAGTGTTTTTTTTTTTTTTTTTTTGATGACAATATAGTTTGCGGT
Q: Does B1 bind?
A: binds
